Measurements from patent US20250074943A1, “DLL3 BINDING PEPTIDES AND USES THEREOF” (AMGEN INC., priority 2021, published 2025).

Legend:
[1] = biological target: rat DLL3 expressed on CHO cells (rat) (UniProt O88671); assay: flow cytometry, 10 ug/ml AMG 757 on High CHO rtDLL3 cells, anti-human IgG Fc-APC
[2] = biological target: human FLT3 expressed on CHO cells (human) (UniProt P36888); assay: flow cytometry, 10 ug/ml AMG 757 on CHO huFTL3 (negative control) cells, anti-human IgG Fc-APC
[3] = biological target: human DLL3 expressed on the surface of cells (human) (UniProt Q9NYJ7); assay: flow cytometry, 10 ug/ml AMG 757 on CHO huDLL3 cells, anti-human IgG Fc-APC
[4] = biological target: cynomolgus monkey DLL3 expressed on CHO cells (cynomolgus monkey); assay: flow cytometry, 10 ug/ml AMG 757 on CHO cynoDLL3 cells, anti-human IgG Fc-APC
[5] = biological target: rat DLL3 expressed on CHO cells (rat) (UniProt O88671); assay: flow cytometry, 10 ug/ml AMG 757 on Low CHO rtDLL3 cells, anti-human IgG Fc-APC
[6] = biological target: mouse DLL3 expressed on CHO cells (mouse) (UniProt O88516); assay: flow cytometry, 10 ug/ml AMG 757 on CHO muDLL3 cells, anti-human IgG Fc-APC
Sequence of mouse DLL3 expressed on CHO cells (mouse) (O88516 33-592): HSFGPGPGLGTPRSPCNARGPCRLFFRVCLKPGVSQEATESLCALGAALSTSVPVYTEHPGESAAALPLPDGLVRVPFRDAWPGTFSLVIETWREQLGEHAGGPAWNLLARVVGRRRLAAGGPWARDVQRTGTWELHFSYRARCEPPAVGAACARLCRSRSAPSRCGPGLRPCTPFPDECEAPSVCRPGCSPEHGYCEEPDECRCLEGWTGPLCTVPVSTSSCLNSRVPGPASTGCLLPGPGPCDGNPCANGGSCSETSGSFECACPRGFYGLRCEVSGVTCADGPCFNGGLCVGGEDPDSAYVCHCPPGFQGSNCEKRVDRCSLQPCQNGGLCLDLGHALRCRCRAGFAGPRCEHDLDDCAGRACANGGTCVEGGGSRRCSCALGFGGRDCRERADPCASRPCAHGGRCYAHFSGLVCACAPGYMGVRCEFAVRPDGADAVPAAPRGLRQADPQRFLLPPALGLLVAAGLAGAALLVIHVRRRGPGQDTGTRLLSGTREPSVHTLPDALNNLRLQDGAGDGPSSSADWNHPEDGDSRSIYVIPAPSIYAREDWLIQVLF

Sequence of rat DLL3 expressed on CHO cells (rat) (O88671 33-589): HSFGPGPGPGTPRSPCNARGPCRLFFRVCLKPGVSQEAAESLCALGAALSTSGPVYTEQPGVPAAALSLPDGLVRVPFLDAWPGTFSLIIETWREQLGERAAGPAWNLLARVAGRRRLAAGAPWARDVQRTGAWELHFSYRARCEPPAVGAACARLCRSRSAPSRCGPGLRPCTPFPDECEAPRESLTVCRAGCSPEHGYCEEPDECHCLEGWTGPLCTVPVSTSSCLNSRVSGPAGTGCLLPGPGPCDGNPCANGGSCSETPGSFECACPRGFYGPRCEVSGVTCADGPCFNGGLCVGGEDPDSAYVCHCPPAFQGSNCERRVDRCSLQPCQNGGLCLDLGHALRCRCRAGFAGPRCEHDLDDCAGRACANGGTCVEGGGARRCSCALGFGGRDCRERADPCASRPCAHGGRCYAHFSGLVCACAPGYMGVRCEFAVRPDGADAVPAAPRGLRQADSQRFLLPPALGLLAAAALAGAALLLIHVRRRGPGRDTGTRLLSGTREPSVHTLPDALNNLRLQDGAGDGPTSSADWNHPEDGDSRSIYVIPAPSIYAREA
Sequence of human DLL3 expressed on the surface of cells (human) (Q9NYJ7 27-618 limits assumed): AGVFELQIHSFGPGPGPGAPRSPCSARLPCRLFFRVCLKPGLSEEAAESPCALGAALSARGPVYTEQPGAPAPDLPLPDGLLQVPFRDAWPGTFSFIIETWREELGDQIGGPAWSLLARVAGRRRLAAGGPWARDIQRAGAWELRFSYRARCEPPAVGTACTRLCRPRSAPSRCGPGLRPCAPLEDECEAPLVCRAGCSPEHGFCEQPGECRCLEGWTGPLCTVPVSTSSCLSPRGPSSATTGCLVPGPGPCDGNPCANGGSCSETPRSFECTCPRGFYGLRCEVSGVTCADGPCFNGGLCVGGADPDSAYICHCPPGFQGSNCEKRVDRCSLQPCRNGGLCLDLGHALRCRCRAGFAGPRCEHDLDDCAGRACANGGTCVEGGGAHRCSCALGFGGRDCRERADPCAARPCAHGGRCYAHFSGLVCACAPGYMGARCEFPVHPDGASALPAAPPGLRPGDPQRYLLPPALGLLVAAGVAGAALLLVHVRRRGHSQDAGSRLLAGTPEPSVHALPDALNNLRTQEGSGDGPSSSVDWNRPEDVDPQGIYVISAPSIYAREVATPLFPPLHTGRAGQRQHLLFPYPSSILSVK
Sequence of cynomolgus monkey DLL3 expressed on CHO cells (cynomolgus monkey) (chain, as listed by the source, form in doubt): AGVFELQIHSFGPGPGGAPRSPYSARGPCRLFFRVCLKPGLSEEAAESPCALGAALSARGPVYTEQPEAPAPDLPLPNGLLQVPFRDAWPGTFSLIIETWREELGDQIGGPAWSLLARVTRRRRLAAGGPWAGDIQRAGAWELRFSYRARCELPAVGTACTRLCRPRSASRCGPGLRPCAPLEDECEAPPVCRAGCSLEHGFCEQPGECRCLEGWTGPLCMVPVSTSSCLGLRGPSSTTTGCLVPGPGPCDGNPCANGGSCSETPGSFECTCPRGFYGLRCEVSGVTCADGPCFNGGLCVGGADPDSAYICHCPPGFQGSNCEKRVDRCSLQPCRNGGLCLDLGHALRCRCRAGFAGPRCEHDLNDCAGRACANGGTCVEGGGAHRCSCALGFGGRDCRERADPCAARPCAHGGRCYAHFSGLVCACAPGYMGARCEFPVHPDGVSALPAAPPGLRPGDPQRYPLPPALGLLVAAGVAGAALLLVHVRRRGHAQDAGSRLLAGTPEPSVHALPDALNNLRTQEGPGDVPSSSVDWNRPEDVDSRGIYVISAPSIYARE

Question: Which results are given for AMG 757 (bispecific antibody)?
Answer: DLL3 positive cells (%) [1]: 98.6%; DLL3 positive cells (%) [2]: 3.3%; DLL3 positive cells (%) [3]: 99.7%; DLL3 positive cells (%) [4]: 98.4%; DLL3 positive cells (%) [5]: 98.6%; DLL3 positive cells (%) [6]: 99.5%
